Measurements taken from US20230087785A1, “Leucine-Rich Repeat Kinase 2 Allosteric Modulators” (VIB VZW, priority 2020, published 2023).
Positions count from the first letter of the chain named.

B1: Nb39: LRRK2-specific Nanobody, SEQ ID NO: 10 (protein)
VHH: MAQVQLVESGGGLVQAGGSLRLSCRASGGTFSTYAMGWFRQVPGKERETVAAVKWSGDMTYYADSVKGRFTISRDNAKNTVYLQMNSLRPEDTAVYYCAARRGLSYYRGPSEYDYWGQGTQVTVSS
modifications: Nanobody CA14134
B2: Nb36: LRRK2-specific Nanobody, SEQ ID NO: 7 (protein)
VHH: MAQVQLVESGGGLVQPGGSLRLSCAASGSIRSITTSAWFRQPPGKQRELVAGISSGTSTNYADSVKGRFTISRDNAKNTVYLQMNSLKPEDTAVYYCHVWISGTWYSGQGTQVTVSS
modifications: Nanobody CA14130
B3: Nb38: LRRK2-specific Nanobody, SEQ ID NO: 8 (protein)
VHH: B2 VHH with T34A, F39Y, S58T, V99A, Y106I
modifications: Nanobody CA14133

Columns and labels:
LRRK2(G2019S) = biological target: T1, LRRK2(G2019S) (Homo sapiens, UniProt Q5S007, G2019S/M2397T/R50H); assay: In cellulo phospho-Rab / LRRK2 autophosphorylation assay in HEK293T cells; assay type: cell-based; set-up: key to Functional Group (see FIG. 2d): Group 1: group 1: Nbs that inhibit both LRRK2 autophosphorylation and Rab10 phosphorylation in cells; Group 2: group 2: Nbs that inhibit only Rab10 phosphorylation; Group 3: group 3: Nbs that activate LRRK2 kinase activity; Group 4: group 4: Nbs that have no consistent/clear effect on LRRK2 kinase activity; details: for influence on LRRK2 kinase activity compared to the controls / LRRK2 autophosphorylation at position S1292 / Rab10 phosphorylation at position T72: HEK 293T cells co-expressing LRRK2(G2019S), Rab29 and Nb-GFP; for influence on LRRK2 kinase activity compared to the controls: Western blot; for Functional Group (see FIG. 2d): classification by effect on in cellulo LRRK2(G2019S) kinase activity; for Rab10 phosphorylation at position T72: endogenous Rab10
T1 construct: SF tag (FLAG + Twin-Strep); expressed in transfected cells; host or cells: HEK 293T
Procedure: (FIGS. 2A-2C) LRRK2(G2019S) and its effector Rab29 were overexpressed together with GFP-fused Nbs (“Fluobody”) in HEK293T cells. A negative control, where no Nb is overexpressed (“No Nb”) is also included. […] In rows labeled “pLRRK2”, LRRK2 pS1292 levels are determined by Western Blot using a site-specific anti-pLRRK2(pS1292) antibody (Abcam, ab203181) (shown at different times of development). In the rows labeled “pRAB10”, endogenous pT72-Rab10 levels are determined by Western Blot using the MJFF/Abcam antibody MJF-R21 (Abcam, ab230261) (shown at different times of development). The three lower rows contain controls of LRRK2 (rat anti-LRRK2, 24D8), Fluobody (rat anti-GFP) and Rab10 (rabbit anti-Rab10) expression levels. (FIG. 2D) Based on the results of panels (FIGS. 2A-2C) the Nbs can be divided into 4 functional groups, with group 1: Nbs that inhibit both LRRK2 autophosphorylation and Rab10 phosphorylation in cells; group 2: Nbs that inhibit only Rab10 phosphorylation; group 3: Nbs that activate LRRK2 kinase activity; group 4: Nbs that have no consistent/clear effect on LRRK2 kinase activity.
To assess the influence of the Nbs on LRRK2 kinase activity we monitored two physiologically and disease relevant activities of LRRK2: phosphorylation of the endogenous substrate Rab10 at position T72 and LRRK2 autophosphorylation at position S1292 [25-30]. […] In our cellular assay we thus co-expressed LRRK2(G2019S), Rab29 and the different Nb-GFP fusions in HEK 293T cells (FIG. 2a-c).
HEK 293T cells were cultured in DMEM (supplemented with 10% Fetal Bovine Serum, […] L-Glutamine and 0.5% Pen/Strep). For the assay, the cells were seeded onto six-well plates and transfected at a confluency of 50-70% with the individual Nb-GFP expression constructs, SF-tagged LRRK2(G2019S) and FLAG-HA Rab29 using a self-made polyethylenimine (PEI)-based transfection reagent. After 48 hrs cells were lysed in lysis buffer [30 mM Tris-HCL (pH7.4), 150 mM NaCl, 0.5% Nonident-P40, complete protease inhibitor cocktail, phosphatase inhibitor cocktail II & III (all Sigma)]. Lysates were cleared by centrifugation at 10,000×g and adjusted to a protein concentration of 1 μg/μl in 1× Laemmli Buffer. Samples were subsequently subjected to SDS PAGE and Western Blot analysis to determine LRRK2 pS1292 and Rab10 T72 phosphorylation levels, as described below. Total LRRK2 and Rab10 levels were determined as a reference.
For western blot analysis, protein samples were separated by SDS-PAGE using NuPAGE 10% Bis-Tris gels (Invitrogen) and transferred onto PVDF membranes (Thermo Fisher). To allow simultaneous probing for LRRK2 on the one hand and Rab and the Nb-GFP fusions on the other hand, membranes were cut horizontally at the 140 kDa MW marker band. After blocking non-specific binding sites with 5% non-fat dry milk in TBST (1 h, RT) (25 mM Tris, pH 7.4, 150 mM NaCl, 0.1% Tween-20), membranes were incubated overnight at 4° C. with primary antibodies at dilutions specified below. Phospho-specific antibodies were diluted in TBST/5% BSA (Roth GmbH). Non-phospho-specific antibodies were diluted in TBST/5% non-fat dry milk powder (BioRad). Phospho-Rab10 levels were determined by the site-specific rabbit monoclonal antibody anti-pRAB10([…]) (Abcam, ab230261) and LRRK2 autophosphorylation was determined by the site-specific rabbit monoclonal antibody anti-pLRRK2(pS1292) (Abcam, ab203181), both at a dilution of 1:2,000. Total LRRK2 levels were determined by the in-house rat monoclonal antibody anti-pan-LRRK2 (clone 24D8; 1:10,000). Total Rab10 levels were determined by the rabbit monoclonal antibody anti-RAB10/ERP13424 (Abcam, ab181367) at a dilution of 1:5,000. Nb-GFP fusion proteins were detected using the rat monoclonal antibody anti-GFP (clone 3H9, ChromoTec) at a dilution of 1:2,000. For detection, goat anti-rat IgG or anti-rabbit IgG HRP-coupled secondary antibodies (Jackson ImmunoResearch) were used at a dilution of 1:15,000 in TBST/5% non-fat dry milk powder. […]

endogenous LRRK2 = biological target: T2, endogenous LRRK2 (Mus musculus, UniProt Q5S006); assay: Colocalization of GFP-Nbs with endogenous LRRK2 on zymosan-containing phagosomes in RAW264.7 cells; assay type: cell-based; details: RAW264.7 cells transfected with GFP-Nbs, zymosan 30 mins, fixed cells
T2 construct: endogenous in cells; host or cells: RAW264.7
Procedure: RAW264.7 cells were transfected with GFP-fused Nbs and treated with Zymosan for 30 mins. Recruitment of LRRK2 and Nbs to the phagosomes was analyzed by immunofluorescence. FIG. 16A, images for Nb38, Nb22, Nb23, Nb40, No Nb, or Irrelevant (IRR) Nb treatments; FIG. 16B, images for Nb36, Nb42, Nb17, Nb39, Nb1, and Nb6 treatments. Scale bar=10 μm.
To test whether Nbs can trace and visualize endogenous LRRK2 in fixed cells, we generated green fluorescent protein (GFP)-Nb fusions (fluobodies) as described before. Recently, it was shown that LRRK2 is recruited to phagosomes upon induction of phagocytosis in immune cells. Therefore, RAW264.7 cells were transfected with these fluobodies and treated with killed yeast bioparticles “zymosan” to induce phagocytosis.
RAW264.7 cells (ATCC® SC-6003™) were transfected with peGFP-Nb constructs using JetOPTIMUS (Polyplus transfection) for 24 hrs and then stimulated with Zymosan particles (Sigma Aldrich) for 30 mins ([…]). Immunostaining for LRRK2 was performed as reported before. Briefly, cells fixed with 4% (w/v) paraformaldehyde for 30 min, followed by treatment with 100% EtOH at −20° C. Sampled were permeabilized with PBS/0.5% Triton X-100 and blocked with 3% BSA. Primary antibodies (rabbit anti-LRRK2, c41-2, Abcam and mouse anti-GFP, G6539, Sigma Aldrich) were diluted in PBS containing 3% BSA and 0.5% Triton X-100 and incubated overnight at 4° C. After three 5-min washes with PBS, secondary fluorescently labeled antibodies (anti-rabbit-Alexa fluor 568 and anti-mouse-Alexa fluor 488, Invitrogen) were added in a similar manner to primary antibodies and incubated for 1 hour at room temperature. Cells were washed twice with 1×PBS and mounted with Fluroshield antifade reagent with DAPI (SigmaAldrich). Images were acquired on Zeiss LSM800 confocal laser scanning microscope. Image analysis of z-scan was done using the Zeiss microscope software ZEN.

T2 sequence (Q5S006 whole entry): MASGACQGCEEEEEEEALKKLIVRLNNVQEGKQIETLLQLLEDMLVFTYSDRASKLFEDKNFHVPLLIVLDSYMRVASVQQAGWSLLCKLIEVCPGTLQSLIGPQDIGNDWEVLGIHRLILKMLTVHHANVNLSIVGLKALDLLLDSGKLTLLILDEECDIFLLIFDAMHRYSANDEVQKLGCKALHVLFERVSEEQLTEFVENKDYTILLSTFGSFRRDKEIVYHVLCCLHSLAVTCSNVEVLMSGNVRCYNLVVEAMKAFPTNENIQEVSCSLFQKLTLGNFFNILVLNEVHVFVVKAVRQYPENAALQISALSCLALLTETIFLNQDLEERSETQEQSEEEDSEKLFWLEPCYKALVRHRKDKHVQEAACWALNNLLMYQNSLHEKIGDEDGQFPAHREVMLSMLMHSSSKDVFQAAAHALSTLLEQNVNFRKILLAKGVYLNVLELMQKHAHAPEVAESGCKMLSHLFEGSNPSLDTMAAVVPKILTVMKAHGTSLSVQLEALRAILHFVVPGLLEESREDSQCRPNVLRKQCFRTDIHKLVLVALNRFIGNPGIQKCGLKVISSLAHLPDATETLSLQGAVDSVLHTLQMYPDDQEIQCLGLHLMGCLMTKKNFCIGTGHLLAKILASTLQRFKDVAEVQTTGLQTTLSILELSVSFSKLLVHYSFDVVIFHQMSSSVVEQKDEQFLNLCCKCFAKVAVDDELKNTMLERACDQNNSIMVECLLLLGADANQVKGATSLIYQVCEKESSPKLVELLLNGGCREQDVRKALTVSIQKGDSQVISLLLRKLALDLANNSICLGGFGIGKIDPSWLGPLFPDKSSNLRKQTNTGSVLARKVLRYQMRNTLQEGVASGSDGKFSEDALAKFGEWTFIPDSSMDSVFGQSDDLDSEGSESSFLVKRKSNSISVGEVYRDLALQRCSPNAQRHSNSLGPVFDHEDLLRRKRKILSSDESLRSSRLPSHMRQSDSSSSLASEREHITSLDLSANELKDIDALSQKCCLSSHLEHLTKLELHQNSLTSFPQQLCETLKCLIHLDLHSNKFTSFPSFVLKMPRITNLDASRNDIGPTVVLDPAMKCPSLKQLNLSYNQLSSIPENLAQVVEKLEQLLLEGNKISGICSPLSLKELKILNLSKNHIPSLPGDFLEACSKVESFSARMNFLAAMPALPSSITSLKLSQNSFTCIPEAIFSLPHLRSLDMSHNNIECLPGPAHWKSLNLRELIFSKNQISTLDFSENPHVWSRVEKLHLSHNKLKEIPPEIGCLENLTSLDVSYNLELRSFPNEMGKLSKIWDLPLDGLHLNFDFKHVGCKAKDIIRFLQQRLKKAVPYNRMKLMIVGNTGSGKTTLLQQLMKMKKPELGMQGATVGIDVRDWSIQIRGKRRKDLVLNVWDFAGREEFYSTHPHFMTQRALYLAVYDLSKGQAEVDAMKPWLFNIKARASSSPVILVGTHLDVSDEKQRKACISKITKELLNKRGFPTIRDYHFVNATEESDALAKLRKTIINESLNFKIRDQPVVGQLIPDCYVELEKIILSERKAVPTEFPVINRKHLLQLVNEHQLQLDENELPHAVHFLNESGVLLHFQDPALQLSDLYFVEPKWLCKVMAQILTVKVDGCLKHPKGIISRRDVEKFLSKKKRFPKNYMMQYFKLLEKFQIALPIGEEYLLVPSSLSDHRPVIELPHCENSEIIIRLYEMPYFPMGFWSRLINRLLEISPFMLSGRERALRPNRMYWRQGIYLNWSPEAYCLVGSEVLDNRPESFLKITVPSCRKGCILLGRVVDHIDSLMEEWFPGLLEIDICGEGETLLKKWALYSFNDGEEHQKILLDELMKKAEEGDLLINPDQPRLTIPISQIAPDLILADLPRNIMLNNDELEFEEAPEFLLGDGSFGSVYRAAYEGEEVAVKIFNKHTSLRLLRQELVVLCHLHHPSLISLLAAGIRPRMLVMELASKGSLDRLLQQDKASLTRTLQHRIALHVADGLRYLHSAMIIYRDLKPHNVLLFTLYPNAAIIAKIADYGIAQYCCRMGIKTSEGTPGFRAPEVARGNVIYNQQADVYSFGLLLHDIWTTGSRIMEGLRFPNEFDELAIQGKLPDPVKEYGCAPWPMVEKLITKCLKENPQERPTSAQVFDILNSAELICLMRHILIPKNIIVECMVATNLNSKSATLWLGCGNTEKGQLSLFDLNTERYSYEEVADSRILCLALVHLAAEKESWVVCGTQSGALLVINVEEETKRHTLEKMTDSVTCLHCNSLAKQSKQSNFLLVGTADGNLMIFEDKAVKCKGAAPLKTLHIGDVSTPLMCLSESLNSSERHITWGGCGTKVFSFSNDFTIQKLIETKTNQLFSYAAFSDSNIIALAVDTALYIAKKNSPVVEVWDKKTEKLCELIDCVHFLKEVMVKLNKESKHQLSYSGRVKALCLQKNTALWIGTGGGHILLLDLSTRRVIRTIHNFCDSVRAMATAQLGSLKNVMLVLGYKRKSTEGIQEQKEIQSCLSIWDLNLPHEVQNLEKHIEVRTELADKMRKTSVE
T1 sequence (Q5S007 whole entry R50H/G2019S/M2397T): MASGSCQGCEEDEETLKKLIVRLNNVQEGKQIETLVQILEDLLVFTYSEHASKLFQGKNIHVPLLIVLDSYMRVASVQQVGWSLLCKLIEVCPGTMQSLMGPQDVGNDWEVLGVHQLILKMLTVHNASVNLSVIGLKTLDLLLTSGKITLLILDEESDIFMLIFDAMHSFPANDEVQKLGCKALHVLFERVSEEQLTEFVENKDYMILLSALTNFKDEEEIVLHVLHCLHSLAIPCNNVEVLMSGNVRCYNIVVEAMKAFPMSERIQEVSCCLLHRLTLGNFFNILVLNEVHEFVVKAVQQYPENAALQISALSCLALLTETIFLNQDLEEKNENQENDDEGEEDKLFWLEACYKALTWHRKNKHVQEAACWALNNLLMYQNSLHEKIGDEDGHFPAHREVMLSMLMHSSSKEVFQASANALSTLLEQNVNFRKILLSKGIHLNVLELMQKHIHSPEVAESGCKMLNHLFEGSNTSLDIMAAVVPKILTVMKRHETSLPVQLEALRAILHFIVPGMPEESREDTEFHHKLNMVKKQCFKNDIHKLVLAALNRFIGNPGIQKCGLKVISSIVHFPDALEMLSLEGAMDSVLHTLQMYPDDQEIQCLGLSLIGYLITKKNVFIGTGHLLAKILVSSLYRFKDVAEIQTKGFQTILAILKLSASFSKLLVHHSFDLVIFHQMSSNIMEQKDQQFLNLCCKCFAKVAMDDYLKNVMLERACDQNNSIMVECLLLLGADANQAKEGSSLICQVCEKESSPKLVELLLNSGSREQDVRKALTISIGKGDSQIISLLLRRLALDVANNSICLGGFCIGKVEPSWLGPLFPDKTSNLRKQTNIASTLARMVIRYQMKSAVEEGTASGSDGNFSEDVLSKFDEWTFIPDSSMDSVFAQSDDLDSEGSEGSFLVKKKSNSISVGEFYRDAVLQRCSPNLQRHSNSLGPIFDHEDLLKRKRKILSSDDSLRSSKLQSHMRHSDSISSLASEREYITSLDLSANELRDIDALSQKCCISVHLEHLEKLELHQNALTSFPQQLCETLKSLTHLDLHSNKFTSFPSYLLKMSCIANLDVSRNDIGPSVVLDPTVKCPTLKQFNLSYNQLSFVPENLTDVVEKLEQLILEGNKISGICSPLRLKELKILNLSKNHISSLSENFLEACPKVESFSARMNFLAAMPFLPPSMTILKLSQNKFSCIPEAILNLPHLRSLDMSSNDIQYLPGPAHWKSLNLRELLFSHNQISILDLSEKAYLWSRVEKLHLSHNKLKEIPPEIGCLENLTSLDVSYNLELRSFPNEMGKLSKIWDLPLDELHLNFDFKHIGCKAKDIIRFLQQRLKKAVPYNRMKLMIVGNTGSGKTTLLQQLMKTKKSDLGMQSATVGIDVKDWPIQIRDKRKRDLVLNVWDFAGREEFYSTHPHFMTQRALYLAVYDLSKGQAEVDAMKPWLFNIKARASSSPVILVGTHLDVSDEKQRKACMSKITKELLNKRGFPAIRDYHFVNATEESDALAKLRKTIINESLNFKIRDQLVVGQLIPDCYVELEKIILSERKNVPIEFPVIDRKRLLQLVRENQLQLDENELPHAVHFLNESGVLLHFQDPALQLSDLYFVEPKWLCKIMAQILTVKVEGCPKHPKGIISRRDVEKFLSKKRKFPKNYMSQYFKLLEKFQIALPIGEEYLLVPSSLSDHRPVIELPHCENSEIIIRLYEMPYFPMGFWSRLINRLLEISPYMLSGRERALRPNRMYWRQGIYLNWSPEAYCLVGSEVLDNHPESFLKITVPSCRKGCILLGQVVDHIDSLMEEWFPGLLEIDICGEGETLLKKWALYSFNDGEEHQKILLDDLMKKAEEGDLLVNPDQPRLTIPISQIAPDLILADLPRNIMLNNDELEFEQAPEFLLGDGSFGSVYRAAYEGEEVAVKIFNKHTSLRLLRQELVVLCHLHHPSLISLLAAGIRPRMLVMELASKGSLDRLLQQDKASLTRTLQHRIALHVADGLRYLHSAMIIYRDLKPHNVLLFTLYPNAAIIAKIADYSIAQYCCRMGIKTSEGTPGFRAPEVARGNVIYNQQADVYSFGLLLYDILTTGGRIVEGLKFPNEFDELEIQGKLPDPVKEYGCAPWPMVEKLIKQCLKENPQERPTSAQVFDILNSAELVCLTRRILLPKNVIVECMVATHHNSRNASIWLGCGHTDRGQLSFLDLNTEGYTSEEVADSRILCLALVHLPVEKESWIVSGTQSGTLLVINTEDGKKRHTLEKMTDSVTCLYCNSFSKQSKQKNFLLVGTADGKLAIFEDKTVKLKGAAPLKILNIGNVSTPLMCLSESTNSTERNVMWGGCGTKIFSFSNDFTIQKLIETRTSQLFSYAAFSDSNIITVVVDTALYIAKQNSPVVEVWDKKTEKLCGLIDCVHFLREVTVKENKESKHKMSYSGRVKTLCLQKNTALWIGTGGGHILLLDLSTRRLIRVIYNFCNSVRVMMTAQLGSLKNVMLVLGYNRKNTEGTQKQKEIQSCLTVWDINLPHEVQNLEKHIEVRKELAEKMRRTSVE

Row | Molecule | influence on LRRK2 kinase activity compared to the controls (LRRK2(G2019S)) | Functional Group (see FIG. 2d) (LRRK2(G2019S)) | colocalization with endogenous LRRK2 on phagosomes (endogenous LRRK2) | LRRK2 autophosphorylation at position S1292 (LRRK2(G2019S)) | Rab10 phosphorylation at position T72 (LRRK2(G2019S))
1 | B1 | no influence on LRRK2 kinase activity | Group 4 | LRRK2 recruitment to phagosomes was slightly detectable |  | 
2 | B2 | strongly decreased LRRK2 autophosphorylation and/or Rab10 phosphorylation | Group 2 | did not colocalize with endogenous LRRK2 | inhibiting S1292 phosphorylation at a lesser extent | inhibit Rab10 phosphorylation
3 | B3 | strongly decreased LRRK2 autophosphorylation and/or Rab10 phosphorylation | Group 2 | clearly colocalized with LRRK2 on zymosan-containing phagosomes | inhibiting S1292 phosphorylation at a lesser extent | inhibit Rab10 phosphorylation
